# Positions count from the first letter of the chain named. In names and notes the source's numbering stands.
# T1: human GFRα3 on HEK293/hGFRα3/hRET/SRE-luc cells (human, UniProt O60609 32-382)
# T1 sequence: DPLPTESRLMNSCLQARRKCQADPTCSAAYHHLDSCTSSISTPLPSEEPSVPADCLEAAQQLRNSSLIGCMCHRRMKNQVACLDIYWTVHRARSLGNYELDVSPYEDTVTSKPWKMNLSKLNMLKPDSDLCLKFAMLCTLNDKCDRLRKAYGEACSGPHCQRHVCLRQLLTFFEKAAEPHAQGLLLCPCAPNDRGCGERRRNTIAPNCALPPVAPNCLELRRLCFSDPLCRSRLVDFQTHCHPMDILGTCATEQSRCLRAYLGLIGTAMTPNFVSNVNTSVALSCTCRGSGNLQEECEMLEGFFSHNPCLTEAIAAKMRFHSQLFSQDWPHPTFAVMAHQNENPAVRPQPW
# B1: H4H2355S (antibody, human IgG4, V domains shown)
# VH: EVQLVESGGGLVQPGGSLRLSCAASGFTFSSYAMSWVRQVPGKGLEWVSAISGSGDNTYNAESVKGRFTISRDNSKNMLYLQMNSLRAEDTAVYYCAKTKFSSSLLFDYWGQGTLVTVSS
# VL: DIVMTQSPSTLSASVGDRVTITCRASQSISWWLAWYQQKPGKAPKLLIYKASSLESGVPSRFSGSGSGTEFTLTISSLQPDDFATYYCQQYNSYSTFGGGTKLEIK
# notes: human IgG4 Fc (H4H)
# B2: H4H2291S (antibody, human IgG4, V domains shown)
# VH: EVQLVESGGGLVQPGESLRLSCAASGFTFSNYAMSWVRQAPGKGLEWVSVISGSGGSTYYADSVKGRFTMSRDNSKNTLYLQMNSLRAEDTAVYYCAKPPSRAARYFNYGMDVWGQGTTVTVSS
# VL: AIRMTQSPSSVSASVGDRVTITCRASQGISSWLAWYQQKPGKAPKLLIYAASSLQSGVPSRFSGSGSGTDFTLTISSLQPEDFATYYCQQANSFPFTFGGGTKVEIK
# notes: human IgG4 Fc (H4H)
# B3: H4H2296S (antibody, human IgG4, V domains shown)
# VH: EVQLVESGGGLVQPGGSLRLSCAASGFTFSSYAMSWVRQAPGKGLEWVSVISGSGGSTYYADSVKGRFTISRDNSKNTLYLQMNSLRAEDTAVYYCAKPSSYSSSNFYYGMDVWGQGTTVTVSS
# VL: B2 VL with A1D, R3V, Q55R, S76T, Q90H, A91T, G100P
# notes: human IgG4 Fc (H4H)
# B4: H4H2295S (antibody, human IgG4, V domains shown)
# VH: EVQLVESGGGLVQAGGSLRLSCVASGFTFSSYAMSWVRQAPGKGLEWVSAISGSGGSTYSADSVKGRFTISRDNSKNTLYLQMNSLRAEDTAVYYCTKPSSYSSSNFYYGMDVWGQGTTVTVSS
# VL: B2 VL with A1D, R3Q, A50T, G68R, A91T, F94L, F96L, G100P
# notes: human IgG4 Fc (H4H)
# B5: H4H2357S (antibody, human IgG4, V domains shown)
# VH: EVQLVESGGGLVQPGGSLRLSCAASTFTFSSYAMTWVRQAPGKGLEWVSSISGSGDSTYYADSVKGRFTISRDNSKNTLFLQMNSLRAEDTAVYYCAKKDGPGRYYVRYGMDVWGQGTTVTVSS
# VL: B2 VL with A1D, R3Q, A50T, A51T, F96L, E105D
# notes: human IgG4 Fc (H4H)
# B6: H4H2342P (antibody, human IgG4, V domains shown)
# VH: EVQLLESGGGLVQPGGSLRLSCAASGFTFSTYAMSWVRQAPGKGLEWVSAIRGNGVNTYYGDSMKGRFTISRDNSKDTLYLQMNSLRAEDTAVYYCAKNKWELLVFEYWGQGTLVTVSS
# VL: DIQMTQSPSSLSASVGDRVTITCRASQDISNYLAWYQQKPGKVPKLLIYAASTLQSGVPFRFSGSGSGTDFTLTISSLQPEDVATYYCQKYNSAPPFGPGTKVDIK
# notes: human IgG4 Fc (H4H)
# B7: H4H2236N3 (antibody, human IgG4, V domains shown)
# VH: EVQLLESGGNLVQPGGSLRLSCAASGFTFSSYAMTWVRQAPGKGLEWVSTISGSGTSTYYADSVKGRFTISRDNSRDTVFLQMNSLRAEDTAVYYCSKPSALRFLHWLAMDVWGQGTLVTVSS
# VL: DIQMTQSPSSLSAFVGDRVTITCRASQDIRNYLDWFQQKPGKAPKSLIYAASNLQSGVPSRFGGSGSGTDFTLTINSLQPEDFVTYYCQQYNSYPPTFGGGTKVEIK
# notes: human IgG4 Fc (H4H)
# B8: H4H2212N (antibody, human IgG4, V domains shown)
# VH: EVQLLESGGGLVQPGGSLRLSCAASGFTFSSYAMSWVRQGPGKGLEWVSGISGSGGSTYNADSVKGRFTISRDNSKNTLYLQMNSLRAEDTAVYYCAKDSGTYWYYFDYWGQGILVTVSS
# VL: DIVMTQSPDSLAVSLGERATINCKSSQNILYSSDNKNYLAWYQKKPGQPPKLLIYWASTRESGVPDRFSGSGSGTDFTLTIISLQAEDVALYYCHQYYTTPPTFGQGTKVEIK
# notes: human IgG4 Fc (H4H)
# Target: T2, human GFRα3 expressed with a C-terminal myc-myc-hexahistidine tag (human, UniProt O60609 32-374, biotinylated (sites not given) in ELISA format 2 and in the Octet cross-competition; not in SPR)
# T2 construct: also called hGFRα3-mmh; hGFRα3-mmH
# Assay: SPR, Ab captured, 25C
# Protocol: Antibodies were tested for binding to human GFRα3 expressed with either a C-terminal myc-myc-hexahistidine tag (hGFRα3-mmh; SEQ ID: 370, a C-terminal hFc tag (hGFRα3-hFc; SEQ ID:371), or a C-terminal mFc tag (hGFRα3-mFc; SEQ ID:372), as well as monkey GFRα3 expressed with a C-terminal myc-myc-hexahistidine tag (MfGFRα3-mmh; SEQ ID:373). Anti-GFRα3 antibodies were captured on either a goat anti-mouse IgG polyclonal antibody (GE Healthcare, #BR-1008-38) or a mouse anti-human IgG monoclonal antibody (GE Healthcare, #BR-1008-39) surface created through direct amine coupling to a Biacore CM5 sensor chip. Kinetic experiments were carried out using HBS-EP (10 mM HEPES, 150 mM NaCl, 3 mM EDTA, 0.05% Surfactant P20, at pH 7.4) or PBS buffer containing 0.05% v/v surfactant P20 as both the running buffer and the sample buffer. Binding to human GFRα3-mmh or monkey GFRα3-mmh was evaluated by injecting several concentrations ranging from 200 to 7.4 nM (3-fold dilutions) across the captured antibody surface. Binding to human GFRα3-mFc or human GFRα3-hFc was evaluated by injecting several concentrations ranging from 100 to 3.7 nM (3-fold dilutions) across the captured antibody surface. Antibody-antigen association was monitored for up to 4 minutes, while dissociation in buffer was monitored for up to 20 minutes. Kinetic association (kₐ) and dissociation (kd) rate constants were determined by processing and fitting the data to a 1:1 binding model using Scrubber 2.0c curve fitting software. Binding dissociation equilibrium constants (KD) and dissociative half-lives (t_{1/2}) were calculated from the kinetic rate constants as: KD (M)=kd/kₐ and t_{1/2} (min)=[ln 2/(60*kd)].
Kd [nM],koff [s⁻¹],kon [M⁻¹ s⁻¹],t1/2 [min],Binder
0.821,0.000152,186000,76,B1
0.393,0.000164,418000,70,B2
0.332,0.000187,563000,62,B3
0.54,0.000256,475000,45,B4
2.42,0.000557,230000,21,B5
1.1,0.000204,186000,57,B6
0.253,0.000233,922000,50,B7

# Target: T2, human GFRα3 expressed with a C-terminal …
# Assay: SPR, Ab captured, 37C
# Outline: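 Anti-GFRα3 antibodies were captured on anti-mouse or anti-human IgG surfaces on a CM5 chip in HBS-EP or PBS with 0.05% P20. Myc-myc-His-tagged antigens were injected at 200 to 7.4 nM, hFc-tagged at 100 to 3.7 nM (3-fold dilutions). Rates were fitted to a 1:1 model; KD = kd/kₐ.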
Kd [nM],koff [s⁻¹],kon [M⁻¹ s⁻¹],t1/2 [min],Binder
4.37,0.00123,281000,9,B1
0.58,0.000323,558000,36,B2
0.802,0.000614,765000,19,B3
1.77,0.00119,669000,10,B4
7.12,0.0021,295000,6,B5
2.03,0.000671,330000,17,B6
0.382,0.000748,1.96e+06,15,B7

# Target: T1, human GFRα3 on …
# Assay: cell-based or functional assay
row,"IC50 (SRE-luc, HEK293/hGFRα3/hRET cells, 100 pM hARTEMIN-mmH) [nM]",Binder
1,2.3,B1
2,1.3,B2
3,1.4,B3
4,1.5,B4
5,4.9,B5
6,1,B6
7,1.5,B7
8,0.8,B8

# Target: T2, human GFRα3 expressed with a C-terminal …
# Assay: Octet cross-competition; biotin-hGFRα3-mmH pre-saturated with first antibody H4H2292S
# Protocol: (§1) A cross-competition assay was conducted to assess the ability of select antibodies to compete with one another for binding to human GFRα3 using an Octet RED384 biosensor (Fortebio Inc.). The entire experiment was performed at 25° C. with the flow rate of 1000 rpm in Octet HBST buffer (0.01 M HEPES pH7.4, 0.15M NaCl, 3 mM EDTA, 0.05% v/v Surfactant P20, 0.1 mg/mL BSA). To assess whether 2 antibodies were able to compete with one another for binding to their respective epitopes on biotinylated recombinant human GFRα3 expressed with a C-terminal myc-myc-hexahistidine tag (biotin-hGFRα3-mmH; SEQ ID:370), around ˜1.2 nm of biotin-hGFRα3-mmH was first captured onto streptavidin-coated Octet sensor tips (Fortebio Inc, #18-5019) by submerging the tips for 1 minute into a 10 μg/mL solution of biotin-hGFRα3-mmH. The antigen coated sensor tips were then placed into wells containing 25 μg/mL solution of a first anti-GFRα3 monoclonal antibody for 4 minutes to saturate the biotin-hGFRα3-mmH surface. The sensor tips were then subsequently dipped into wells containing 25 μ/mL solution of a second anti-GFRα3 monoclonal antibody. The sensor tips were washed in Octet HBST buffer in between every step of the experiment. The real-time binding response was monitored during the course of the experiment and the binding response at the end of every step was recorded as shown in FIG. 9. The response of mAb-2 binding to biotin-hGFRα3-mmH pre-complexed with the first antibody was compared and competitive/non-competitive behavior of different anti-GFRα3 monoclonal antibodies was determined.
row,binding response of second antibody (nm),Binder
1,2.07,B1
2,2.81,B2
3,2.36,B3
4,2.31,B4
5,2.43,B5
6,2.16,B6
7,2.24,B7
8,1.78,B8

# Target: T2, human GFRα3 expressed with a C-terminal …
# Assay: Octet cross-competition; biotin-hGFRα3-mmH pre-saturated with first antibody H4H2296S
# Protocol: as §1
row,binding response of second antibody (nm),Binder
1,0.02,B1
2,0.18,B2
3,0.07,B3
4,0.05,B4
5,0.06,B5
6,0.03,B6
7,0.07,B7
8,1.76,B8

# Target: T2, human GFRα3 expressed with a C-terminal …
# Assay: Octet cross-competition; biotin-hGFRα3-mmH pre-saturated with first antibody H4H2352S
# Protocol: as §1
row,binding response of second antibody (nm),Binder
1,2.12,B1
2,2.63,B2
3,2.35,B3
4,2.31,B4
5,2.45,B5
6,2.08,B6
7,2.15,B7
8,0.05,B8

# Target: T2, human GFRα3 expressed with a C-terminal …
# Assay: Octet cross-competition; biotin-hGFRα3-mmH pre-saturated with first antibody H4H2243N2
# Protocol: as §1
row,binding response of second antibody (nm),Binder
1,0.24,B1
2,0.52,B2
3,0.33,B3
4,0.39,B4
5,0.32,B5
6,0.15,B6
7,0.3,B7
8,0.22,B8

# Reference: patent US20140056903A1 (Regeneron, published 2014)
